This series concerns the molecule itself. The series is described as follows: SEC-MALS; 50 µg of each sample, Superdex 200 increase 10/300, 30 mM HEPES pH 7.5, 300 mM NaCl, 5 % glycerol, 0.5 mM TCEP. In general terms: Size exclusion chromatography separates by hydrodynamic size, large species first.

From doi:10.64898/2025.12.15.694324, “Dimerization of human PARP15 is required for NAD^+ binding and automodification” (bioRxiv, 2025) come the findings set out here.

B1: PARP15^FL WT, full-length long isoform 1 of human PARP15 (enzyme, UniProt Q460N3 1-678, looked up)
chain: MAAPGPLPAAALSPGAPTPRELMHGVAGVTSRAGRDREAGSVLPAGNRGARKASRRSSSRSMSRDNKFSKKDCLSIRNVVASIQTKEGLNLKLISGDVLYIWADVIVNSVPMNLQLGGGPLSRAFLQKAGPMLQKELDDRRRETEEKVGNIFMTSGCNLDCKAVLHAVAPYWNNGAETSWQIMANIIKKCLTTVEVLSFSSITFPMIGTGSLQFPKAVFAKLILSEVFEYSSSTRPITSPLQEVHFLVYTNDDEGCQAFLDEFTNWSRINPNKARIPMAGDTQGVVGTVSKPCFTAYEMKIGAITFQVATGDIATEQVDVIVNSTARTFNRKSGVSRAILEGAGQAVESECAVLAAQPHRDFIITPGGCLKCKIIIHVPGGKDVRKTVTSVLEECEQRKYTSVSLPAIGTGNAGKNPITVADNIIDAIVDFSSQHSTPSLKTVKVVIFQPELLNIFYDSMKKRDLSASLNFQSTFSMTTCNLPEHWTDMNHQLFCMVQLEPGQSEYNTIKDKFTRTCSSYAIEKIERIQNAFLWQSYQVKKRQMDIKNDHKNNERLLFHGTDADSVPYVNQHGFNRSCAGKNAVSYGKGTYFAVDASYSAKDTYSKPDSNGRKHMYVVRVLTGVFTKGRAGLVTPPPKNPHNPTDLFDSVTNNTRSPKLFVVFFDNQAYPEYLITFTA
modifications: weakly MARylated from expression in Sf21 insect cells
notes: PARP15, human, full-length canonical isoform 1 (the longer isoform, both macrodomains present); Cloned in pFastBac-His-MBP (#30116); tags cleaved with TEV protease; source: Sf21 insect cells (baculovirus), purified (Ni-NTA, amylose resin, TEV cleavage, SEC)
B1: the “stoichiometry N” value is roughly 2.

As usually defined, the stoichiometry N is the number of molecules, sites or subunits per partner or assembly.
